In patent US20230083670A1 (published 2023):

Molecular target: PD-L1 on CHO cells expressing human PD-L1 (CHO-PDL1) (human, UniProt Q9NZQ7 19-290)
Experiment: flow cytometry cell binding; CHO-PD-L1 cells

Chain of PD-L1 on CHO cells expressing human PD-L1 (CHO-PDL1) (Q9NZQ7 19-290): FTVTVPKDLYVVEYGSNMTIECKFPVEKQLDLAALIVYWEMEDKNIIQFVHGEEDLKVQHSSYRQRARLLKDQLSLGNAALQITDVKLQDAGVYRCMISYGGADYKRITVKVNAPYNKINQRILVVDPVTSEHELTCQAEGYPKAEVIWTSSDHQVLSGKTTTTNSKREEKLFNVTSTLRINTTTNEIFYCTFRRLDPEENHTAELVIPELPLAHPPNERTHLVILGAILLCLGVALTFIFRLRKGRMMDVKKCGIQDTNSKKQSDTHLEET

EC50: 0.0511 nM
B1: IMM2515 (antibody, V domains shown)
VH: QVQLVQSGAEVKKPGASVKVSCKASGYTFTSNWMHWVRQAPGQGLEWMGMIHPNSGSSNYNEKFKSRVTMTRDTSTSTVYMELSSLRSEDTAVYYCARSYYGSSPYYFDYWGQGTLVTVSS
VL: DIQMTQSPSSLSASVGDRVTITCRASQDIINYLNWYQQKPGKAPKLLIYYTSRLHSGVPSRFSGSGSGTDFTFTISSLQPEDIATYYCQQGDTLPWTFGQGTKVEIKR
